Experimental findings from US20240247076A1 (SUZHOU ALPHAMAB, published 2024) are described below.

The target of experiment [1] is T1, mApple-chis (mouse, UniProt Q91Y47 19-389).
T1 construct: range 1-389; also called mapple-chis-biotin
T1 sequence (looked up): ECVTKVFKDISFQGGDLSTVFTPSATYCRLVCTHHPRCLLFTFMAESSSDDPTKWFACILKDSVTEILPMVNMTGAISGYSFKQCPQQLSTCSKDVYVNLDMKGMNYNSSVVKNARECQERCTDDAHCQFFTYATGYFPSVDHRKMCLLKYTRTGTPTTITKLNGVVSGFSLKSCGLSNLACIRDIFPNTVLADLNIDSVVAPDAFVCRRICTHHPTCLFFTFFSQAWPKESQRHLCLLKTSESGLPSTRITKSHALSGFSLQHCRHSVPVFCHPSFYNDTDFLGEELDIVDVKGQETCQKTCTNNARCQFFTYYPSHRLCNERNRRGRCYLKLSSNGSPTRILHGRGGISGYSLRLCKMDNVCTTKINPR
Kind of experiment: ELISA, clone lysate on coated antigen. (In general: In an ELISA, binding on a coated surface is turned into a signal by an enzyme label.)
Description: (§1) The FXI-binding positive phages obtained after panning were infected with blank E. coli and plated. Then 190 single colonies were randomly selected, named iFE 1 to iFE 190, and separately inoculated into 2TY-AG, and when the colonies were cultured to OD600 of about 0.8, IPTG was added to a final concentration of about 1 mM; after the expression was induced overnight at 25° C., single-domain antibodies were expressed in E. coli periplasm; the next day, the bacteria were harvested and lysed, and the supernatant was collected and used for ELISA assay. The plates were coated with hFXI, hApple and mApple, respectively, and then reacted overnight at 4° C., and the obtained sample lysis supernatant (the control group was E. coli lysis supernatant as a blank control) was added and reacted at room temperature for 2 hours. After washing, secondary antibody Goat anti-HA tag HRP (purchased from abcam) was added and reacted at room temperature for 2 hours. After washing, TMB chromogenic solution was added, absorbance values at 450 nm and 650 nm wavelengths were read, and a final absorbance value was obtained by subtracting the absorbance value at 650 nm wavelength from the absorbance value at 450 nm wavelength. When the OD value of the sample wells was more than 2 times larger than that of the control wells, the sample wells were determined as positive cloning wells.

The target of experiment [2] is T2, recombinant human factor XI (hFXI) (human, UniProt P03951 19-625).
T2 construct: also called hFXI-Chis; hFXI-CHis
In words: ELISA, clone lysate on coated antigen.
Description: as §1

Experiment [3] deals with T3, hApple-chis (human, UniProt P03951 19-387).
T3 construct: range 1-387; also called happle-chis-biotin
Kind of experiment: ELISA, clone lysate on coated antigen.
Description: as §1

For experiment [4], the target named is T3, hApple-chis. In words: ELISA, purified tagged VHH on coated antigen.
Description: (§2) Plates were coated with hApple and mApple proteins, respectively, at 0.5 μg/well and reacted overnight at 4° C. The plates were added with a gradient dilution series of the candidate single-domain antibodies with His and HA tags obtained in 1.4. and reacted at room temperature for 2 hours. After washing, a chicken anti-HA-tag secondary antibody (streptavidin-HRP, abcam) labeled with horseradish peroxidase was added and reacted at room temperature for 2 hours. After washing, a chromogenic solution was added, absorbance values at 450 nm and 650 nm wavelengths were read, and a final absorbance value was obtained by subtracting the absorbance value at 650 nm wavelength from the absorbance value at 450 nm wavelength. Data processing and mapping analysis were carried out by using software SotfMax Pro v5.4, and through four-parameter filling, binding curves of the candidate single-domain antibodies against FXI to hApple and mApple and EC₅₀ values were obtained so as to reflect the affinities of the candidate antibodies for hApple and mApple.
Experiment [5] addresses T1, mApple-chis. In words: ELISA, purified tagged VHH on coated antigen.
Description: as §2

B1: iFE43 (VHH, not shown: small tags and cut ends)
VHH: QVQLQESGGGSVQAGGSLRLSCAASGLRFSIYDWSWVRQAPGKGLEWVSAINSGGGVTSYADSVKGRVTISRDNAKNTLYLQMHSLKTEDTAVYYCATGDGGSWYRDGDWGQGTQVTVSS
notes: also called antibody strain 43
As for B1, the OD is 0.04 OD in experiment [1], 1.06 OD in experiment [2] and 1.38 OD in experiment [3].

B2: iFE49 (VHH, not shown: small tags and cut ends)
VHH: QVQLQESGGDSVQAGGSLRLSCAASGLISTGLISTRHCMSWFRQAPGKEREEVAVIGSDGSTRYGDFAKGRFTISKDTAKNTLYLQMNSLEPEDTAMYYCAAGPLVSTASRRRTRCPEGPRENIYWGQGTQVTVSS
notes: also called antibody strain 49
By EC50 is commonly meant the concentration giving half of the maximal effect. Low readings indicate a more potent agent, high ones a less potent agent. Turning to B2, in experiment [4], the midpoint of the response, the EC50, lay at 1.16 µg/mL. In addition, the OD is 0.061 OD in experiment [1], 0.998 OD in experiment [2] and 1.26 OD in experiment [3].

B3: iFE35 (VHH, not shown: small tags and cut ends)
VHH: QVQLQESGGGSVQAGGSLGLSCTASGFTFDDSDMGWYRQAPGNECELVSTISSDGRGFYADSVKGRFTISQDRAKNTVYLHMNSLKPEDTAVYYCAAGWYGSFCSGLGQGTQVTVSS
notes: also called antibody strain 35
In experiment [4], B3 yielded an EC50 of 0.0241 µg/mL. The OD in experiment [1] was found to be 0.043 OD; in experiment [2], 1.8 OD; in experiment [3], 1.61 OD.

B4: iFE163 (VHH, not shown: small tags and cut ends)
VHH: QVQLQESGGDSVQAGGSLRLSCIASGFTFDDSDMGWYRQAPGHQCEFVSHITNDGTTYYADSVKGRFTISRDNAKNTVYLQMNSLKPEDAAVYYCAADAWGGGRSTCVNPIGYWGQGTQVTVSS
Take B4: the EC50 was determined as 0.0129 µg/mL in experiment [5] and 0.0162 µg/mL in experiment [4]. In addition, the OD in experiment [1] is 1.07 OD; in experiment [2], 1.46 OD; in experiment [3], 1.09 OD.

B5: iFE56 (VHH, not shown: small tags and cut ends)
VHH: QVQLQESGGGSVQAGGSLRLSCAASGHTYSSNYCMAWFRQAPGKEREGVAAIYSDGSTSYADSVKGRFTISKDNAKNTLYLQIDSLKPEDTSLYYCAATAYEGSWTGKQPLCLLYEYTYWGQGTQVTVSS
notes: also called antibody strain 56
As for B5, in experiment [4], the half-maximal effective concentration (EC50) came to 0.323 µg/mL. The OD in experiment [1] is 0.04 OD; in experiment [2], 1.42 OD; in experiment [3] it was 1.46 OD.

B6: iFE96 (VHH, not shown: small tags and cut ends)
VHH: QVQLQESGGGSVQAGGSLRLSCAASGFTASSNFMGWFRQAPGKEREGVAAIYTGGASTFYADSVKGRFTISQDNAKNTVYLEMDTLKPEDTAMYYCAAAPRWIAPLRADRYEYWGQGTQVTVSS
notes: also called antibody strain 96
With B6, the figures for the “OD at 20 µg/mL” value in experiment [5] and in experiment [4] were 0.8 OD and 1.3 OD, respectively. For the same molecule, the EC50 in experiment [4] is 1.25 µg/mL. Besides, the OD in experiment [1] was 0.334 OD; in experiment [2], 0.407 OD; in experiment [3], 0.58 OD.

B7: iFE13 (VHH, not shown: small tags and cut ends)
VHH: QVQLQESGGGSVQAGGSLRLSCAGDGYTYSMGAMAWFRQAPGKEREGVALIATSSGFISYTDSVKGRFTISQDDAKIYLQMNSLKPEDTAMYYCAAGTQFSWSPGSYNYWGQGTQVTVSS
notes: also called antibody strain 13
In turn, B7 returned a half-maximal effective concentration (EC50) in experiment [4] of 0.0195 µg/mL. Also, the results for the OD in experiment [1], in experiment [2] and in experiment [3] were 0.056 OD, 1.94 OD and 1.98 OD, respectively.

B8: iFE50 (VHH, not shown: small tags and cut ends)
VHH: QVQLQESGGGLVQPGGSLRLSCAASGFTFSLYDMSWVRQAPGQGLEWVSAITNPGGSTYYADSVKDRFTISRDNAKNTLYLQMNSLKTEDTAVYYCAIGRRATFQREKDWGQGTQVTVSS
notes: also called antibody strain 50
Regarding B8, the OD in experiment [1] came out at 0.042 OD; in experiment [2], 0.439 OD; in experiment [3], 1.05 OD.

B9: iFE148 (VHH, not shown: small tags and cut ends)
VHH: QVQLQESGGGSVQAGGSLRLSCVASGYTFNNNFVGWFRQAPGKEREGVAAIYSLGGSTYYADSVKGRFTISQDNAKNTVYLQMDSLKPEDTATYYCAGAITWVPPLSHRRYTYWGQGTQVTVSS
As for B9, the EC50 in experiment [5] worked out at 0.255 µg/mL; in experiment [4], 0.263 µg/mL. Besides, the results for the OD in experiment [1], in experiment [2] and in experiment [3] were 0.681 OD, 0.714 OD and 0.998 OD, respectively.

B10: iFE166 (VHH, not shown: small tags and cut ends)
VHH: QVQLQESGGGSVQAGGSLRLSCVASGFTGCRNIMSWYRQAPGKDREFVSAIDSDGVDYADSVKGRFSISQHNDKKTMYLQMTSLKLEDTAMYYCRRVDFGTTSQCRGNYWGQGTQVTVSS
B10: the 50% effective concentration (EC50) in experiment [5] was 0.0468 µg/mL; in experiment [4], 0.0498 µg/mL. The results for the OD in experiment [1], in experiment [2] and in experiment [3] were 1.83 OD, 1.24 OD and 1.69 OD, respectively.

B11: iFE5 (VHH, not shown: small tags and cut ends)
VHH: QVQLQESGGGSVQAGGSLRLSCAASGYTYSFNSMGWFRQAPGKEREGVAVIYLGSTHYADSVKGRFTISQDNAKNMVYLQMNSLKPEDTAMYYCAADLLEYDGTWFGSTYNYWGQGTQVTVSS
notes: also called antibody strain 5
Turning to B11, the EC50 in experiment [4] turned out to be 0.0329 µg/mL. Also, the OD in experiment [1] was 0.069 OD; in experiment [2], 1.33 OD; in experiment [3], 1.62 OD.

B12: iFE97 (VHH, not shown: small tags and cut ends)
VHH: QVQLQESGGGSVQAGGSLRLSCTASEFTFDDSDMAWYRQAPGNECELVSTITSDGGTYYADSVKGRFTISQDNAKNTMYLQMNNLKPEDTAVYYCAADQWGSAEGDCTSSYPGGYWGQGTQVTVSS
notes: also called antibody strain 97
For the molecule B12, the EC50 came out at 1.23 µg/mL in experiment [5] and 0.735 µg/mL in experiment [4]. The “OD at 20 µg/mL” value in experiment [5] stood at 1.4 OD. In addition, the OD in experiment [1] amounted to 0.774 OD; in experiment [2], 1.3 OD; in experiment [3], 0.994 OD.

B13: iFE168 (VHH, not shown: small tags and cut ends)
VHH: QVQLQESGGGSVQAGGSLRLSCAASGYTFSNNFVGWFRQAPGKKREGVATIYTLGSSTYYADSVKGRFTISQDNAKNTLYLEMNSLKPEDTAMYYCAAARGWVSPLDPARFVYWGQGTQVTVSS
notes: also called antibody strain 168
On to B13, for which the EC50 in experiment [5] stood at 0.0584 µg/mL; in experiment [4] it was 0.0205 µg/mL. For the same molecule, the figures for the OD in experiment [1], in experiment [2] and in experiment [3] were 0.843 OD, 0.619 OD and 0.974 OD, respectively.
